Results from patent US20060241051A1 (Takeda / Millennium, published 2006).
Square brackets hold non-standard residues; d marks the D form. Primed or numbered codes have the meaning given here. Ends that are not written are not given here. * marks the point of attachment. Propanoyl(3-indol-3-yl) = O=C(CCc1c[nH]c2ccccc12)*; Phe(3-Cl) = N[C@@H](Cc1cccc(Cl)c1)C(=O)O; Phe(4-Cl) = N[C@@H](Cc1ccc(Cl)cc1)C(=O)O; Phe(4-NH2) = Nc1ccc(C[C@H](N)C(=O)O)cc1; Phe(2-Cl) = N[C@@H](Cc1ccccc1Cl)C(=O)O; 1Nal = N[C@@H](Cc1cccc2ccccc12)C(=O)O; 2Nal = N[C@@H](Cc1ccc2ccccc2c1)C(=O)O; Arg(Me) = CNC(=N)NCCC[C@H](N)C(=O)O; Diphenylacetyl′ = not defined here; d3Pal = N[C@H](Cc1cccnc1)C(=O)O; azaGly = NNC(=O)O

What was measured:
[1] = target: T1, human OT7T175 (metastin receptor) (human, UniProt Q969F8 1-398); assay: cell-based or functional assay
[2] = target: T1, human OT7T175 (metastin receptor); assay: FMAT competition with Cy-5-labeled metastin (40-54), hOT7T175-expressed CHO cells
Method: h0T7T175-Expressed CHO cells were cultured in MEM-α medium (nucleic acid-free) containing 10% dialyzed serum. The medium was removed and the adherent cells were washed with PBS. Then, PBS containing 5 mM EDTA was added and the cells were scraped from a flask with a cell scraper. […] To each well of a 96-Well Black Clear Bottom Plate (Applied Biosystems, Inc.), 10 μL of assay buffer containing 1% dimethylsulfoxide was added to examine total binding, 10 μL of 10 μM non-labeled peptide (having the same amino acid sequence as that of the labeled one) solution diluted with assay buffer to examine non-specific binding, and 10 μL of a test compound diluted with assay buffer to examine the binding inhibition activity of the test compound, respectively. Furthermore, 90 μL each of the cell suspension was dispensed to each well. […] The specific binding is a value obtained by subtracting the non-specific binding from the total binding.

T1 sequence (Q969F8 whole entry L364H): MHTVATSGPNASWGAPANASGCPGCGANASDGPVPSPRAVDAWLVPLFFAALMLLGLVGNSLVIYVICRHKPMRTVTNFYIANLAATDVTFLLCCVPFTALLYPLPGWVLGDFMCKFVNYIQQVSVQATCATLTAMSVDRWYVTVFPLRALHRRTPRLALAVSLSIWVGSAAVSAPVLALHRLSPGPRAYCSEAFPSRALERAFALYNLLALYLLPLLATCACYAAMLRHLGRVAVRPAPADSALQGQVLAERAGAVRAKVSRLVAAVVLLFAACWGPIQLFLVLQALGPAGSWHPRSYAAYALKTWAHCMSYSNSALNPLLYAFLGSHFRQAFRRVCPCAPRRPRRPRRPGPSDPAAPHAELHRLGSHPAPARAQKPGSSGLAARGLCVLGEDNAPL

{3‑Phenylpropionyl}-NSF[azaGly]L[Arg(Me)]F-NH2 [Compound No. 269: des(1-3)-3-Phenylpropionyl-[AzaGly7,Arg(Me)9]MS10]
intracellular Ca ion level-increasing activity (FLIPR) [1]: 3 specific activity to metastin (1-54) | IC50 [2]: 470 nM

[d3Pal]FNSF[azaGly]L[Arg(Me)]F-NH2 [Compound No. 256: des(1)-[D-Pya(3) 2,Phe3,AzaGly7,Arg(Me)9]MS10]
intracellular Ca ion level-increasing activity (FLIPR) [1]: 1 specific activity to metastin (1-54) | IC50 [2]: 22 nM

B1: Compound No. 289: des(1)-[D-Pya(3) 2,AzaGly7,Arg(Me)9]MS10 (peptide)
peptide: [d3Pal]WNSF[azaGly]L[Arg(Me)]F-NH2
modifications: N-terminus assumed
SMILES: CNC(=N)NCCC[C@H](NC(=O)[C@H](CC(C)C)NC(=O)NNC(=O)[C@H](Cc1ccccc1)NC(=O)[C@H](CO)NC(=O)[C@H](CC(N)=O)NC(=O)[C@H](Cc1c[nH]c2ccccc12)NC(=O)[C@H](N)Cc1cccnc1)C(=O)N[C@@H](Cc1ccccc1)C(N)=O
notes: also called [D-Pya(3)2,AzaGly7,Arg(Me)9]MS10-(2-10)
intracellular Ca ion level-increasing activity (FLIPR) [1]: 1 specific activity to metastin (1-54) | IC50 [2]: 8.4 nM

[dY][2Nal]NSF[azaGly]L[Arg(Me)]F-NH2 [Compound No. 255: des(1)-[D-Tyr2,Nal(2) 3,AzaGly7,Arg(Me)9]MS10]
intracellular Ca ion level-increasing activity (FLIPR) [1]: 1 specific activity to metastin (1-54) | IC50 [2]: 33 nM

B2: Compound No. 245: [D-Tyr1,Nal(1)3,AzaGly7,Arg(Me)9]MS10 (peptide)
peptide: [dY]N[1Nal]NSF[azaGly]L[Arg(Me)]F-NH2
modifications: N-terminus assumed
SMILES: CNC(=N)NCCC[C@H](NC(=O)[C@H](CC(C)C)NC(=O)NNC(=O)[C@H](Cc1ccccc1)NC(=O)[C@H](CO)NC(=O)[C@H](CC(N)=O)NC(=O)[C@H](Cc1cccc2ccccc12)NC(=O)[C@H](CC(N)=O)NC(=O)[C@H](N)Cc1ccc(O)cc1)C(=O)N[C@@H](Cc1ccccc1)C(N)=O
intracellular Ca ion level-increasing activity (FLIPR) [1]: 1 specific activity to metastin (1-54) | IC50 [2]: 98 nM

B3: Compound No. 265: des(1-3)-Indole-3-carbonyl-[AzaGly7,Arg(Me)9]MS10 (peptide)
peptide: {Indole‑3‑carbonyl}-NSF[azaGly]L[Arg(Me)]F-NH2
notes: also called des(1-3)-Indole-3-carboxyl-[AzaGly7,Arg(Me)9]MS10
intracellular Ca ion level-increasing activity (FLIPR) [1]: 3 specific activity to metastin (1-54) | IC50 [2]: 95 nM

B4: Compound No. 246: [D-Tyr1,Nal(2) 3,AzaGly7,Arg(Me)9]MS10 (peptide)
peptide: [dY]N[2Nal]NSF[azaGly]L[Arg(Me)]F-NH2
modifications: N-terminus assumed
SMILES: CNC(=N)NCCC[C@H](NC(=O)[C@H](CC(C)C)NC(=O)NNC(=O)[C@H](Cc1ccccc1)NC(=O)[C@H](CO)NC(=O)[C@H](CC(N)=O)NC(=O)[C@H](Cc1ccc2ccccc2c1)NC(=O)[C@H](CC(N)=O)NC(=O)[C@H](N)Cc1ccc(O)cc1)C(=O)N[C@@H](Cc1ccccc1)C(N)=O
intracellular Ca ion level-increasing activity (FLIPR) [1]: 2 specific activity to metastin (1-54) | IC50 [2]: 7.1 nM

{Propanoyl(3-indol-3-yl)}-NSF[azaGly]L[Arg(Me)]F-NH2 [Compound No. 260: des(1-3)-3-(3-Indolyl)propionyl-[AzaGly7,Arg(Me)9]MS10]
intracellular Ca ion level-increasing activity (FLIPR) [1]: 5 specific activity to metastin (1-54) | IC50 [2]: 320 nM

[dY]NFNSF[azaGly]L[Arg(Me)]F-NH2 [Compound No. 244: [D-Tyr1,Phe3,AzaGly7,Arg(Me)9]MS10]
intracellular Ca ion level-increasing activity (FLIPR) [1]: 1 specific activity to metastin (1-54) | IC50 [2]: 77 nM

[dY]N[Phe(4-Cl)]NSF[azaGly]L[Arg(Me)]F-NH2 [Compound No. 249: [D-Tyr1,Phe(4Cl) 3,AzaGly7,Arg(Me)9]MS10]
intracellular Ca ion level-increasing activity (FLIPR) [1]: 1 specific activity to metastin (1-54) | IC50 [2]: 150 nM

B5: Compound No. 284: [D-Tyr1,D-Asn2,Thr3,AzaGly7,Arg(Me)9]MS10 (peptide)
peptide: [dY][dN]TNSF[azaGly]L[Arg(Me)]F-NH2
modifications: N-terminus assumed
SMILES: CNC(=N)NCCC[C@H](NC(=O)[C@H](CC(C)C)NC(=O)NNC(=O)[C@H](Cc1ccccc1)NC(=O)[C@H](CO)NC(=O)[C@H](CC(N)=O)NC(=O)[C@@H](NC(=O)[C@@H](CC(N)=O)NC(=O)[C@H](N)Cc1ccc(O)cc1)[C@@H](C)O)C(=O)N[C@@H](Cc1ccccc1)C(N)=O
intracellular Ca ion level-increasing activity (FLIPR) [1]: 1 specific activity to metastin (1-54) | IC50 [2]: 34 nM

B6: Compound No. 248: [D-Tyr1,Phe(3Cl) 3,AzaGly7,Arg(Me)9]MS10 (peptide)
peptide: [dY]N[Phe(3-Cl)]NSF[azaGly]L[Arg(Me)]F-NH2
modifications: N-terminus assumed
SMILES: CNC(=N)NCCC[C@H](NC(=O)[C@H](CC(C)C)NC(=O)NNC(=O)[C@H](Cc1ccccc1)NC(=O)[C@H](CO)NC(=O)[C@H](CC(N)=O)NC(=O)[C@H](Cc1cccc(Cl)c1)NC(=O)[C@H](CC(N)=O)NC(=O)[C@H](N)Cc1ccc(O)cc1)C(=O)N[C@@H](Cc1ccccc1)C(N)=O
intracellular Ca ion level-increasing activity (FLIPR) [1]: 2 specific activity to metastin (1-54) | IC50 [2]: 58 nM

[dY][dN]FNSF[azaGly]L[Arg(Me)]F-NH2 [Compound No. 257: [D-Tyr1,D-Asn2,Phe3,AzaGly7,Arg(Me)9]MS10]
intracellular Ca ion level-increasing activity (FLIPR) [1]: 3 specific activity to metastin (1-54) | IC50 [2]: 40 nM

[dY]N[Phe(2-Cl)]NSF[azaGly]L[Arg(Me)]F-NH2 [Compound No. 247: [D-Tyr1,Phe(2CL) 3,AzaGly7,Arg(Me)9]MS10]
intracellular Ca ion level-increasing activity (FLIPR) [1]: 1 specific activity to metastin (1-54) | IC50 [2]: 45 nM

[dY][dS]WNSF[azaGly]L[Arg(Me)]F-NH2 [Compound No. 287: [D-Tyr1,D-Ser2,AzaGly7,Arg(Me)9]MS10]
intracellular Ca ion level-increasing activity (FLIPR) [1]: 2 specific activity to metastin (1-54) | IC50 [2]: 2.3 nM

[dA]NWNSF[azaGly]L[Arg(Me)]F-NH2 [Compound No. 259: [D-Ala1,AzaGly7,Arg(Me)9]MS10]
intracellular Ca ion level-increasing activity (FLIPR) [1]: 1 specific activity to metastin (1-54) | IC50 [2]: 250 nM

[dY]N[Phe(4-NH2)]NSF[azaGly]L[Arg(Me)]F-NH2 [Compound No. 250: [D-Tyr1,Phe(4NH2) 3,AzaGly7,Arg(Me)9]MS10]
intracellular Ca ion level-increasing activity (FLIPR) [1]: 1 specific activity to metastin (1-54) | IC50 [2]: 3.7 nM

[dY][dH]WNSF[azaGly]L[Arg(Me)]F-NH2 [Compound No. 288: [D-Tyr1,D-His2,AzaGly7,Arg(Me)9]MS10]
intracellular Ca ion level-increasing activity (FLIPR) [1]: 1 specific activity to metastin (1-54) | IC50 [2]: 0.072 nM

{4‑(3-Indolyl)butyryl}-NSF[azaGly]L[Arg(Me)]F-NH2 [Compound No. 267: des(1-3)-4-(3-Indolyl)butyryl-[AzaGly7,Arg(Me)9]MS10]
intracellular Ca ion level-increasing activity (FLIPR) [1]: 2 specific activity to metastin (1-54) | IC50 [2]: 360 nM

{Diphenylacetyl′}-NSF[azaGly]L[Arg(Me)]F-NH2 [Compound No. 268: des(1-3)-Diphenylacetyl-[AzaGly7,Arg(Me)9]MS10]
intracellular Ca ion level-increasing activity (FLIPR) [1]: 1 specific activity to metastin (1-54) | IC50 [2]: 550 nM

B7: Compound No. 270: [D-Tyr1,Phe3,Ser-Phe5,AzaGly7,Arg(Me)9]MS10 (peptide)
peptide: [dY]NFNSFF[azaGly]L[Arg(Me)]F-NH2
notes: 11 residues; also called Endo-Phe5a-[D-Tyr1,Phe3,AzaGly7,Arg(Me)9]MS10
intracellular Ca ion level-increasing activity (FLIPR) [1]: 1 specific activity to metastin (1-54) | IC50 [2]: 15 nM

B8: Compound No. 258: [D-Pya(3)1,AzaGly7,Arg(Me)9]MS10 (peptide)
peptide: [d3Pal]NWNSF[azaGly]L[Arg(Me)]F-NH2
modifications: N-terminus assumed
SMILES: CNC(=N)NCCC[C@H](NC(=O)[C@H](CC(C)C)NC(=O)NNC(=O)[C@H](Cc1ccccc1)NC(=O)[C@H](CO)NC(=O)[C@H](CC(N)=O)NC(=O)[C@H](Cc1c[nH]c2ccccc12)NC(=O)[C@H](CC(N)=O)NC(=O)[C@H](N)Cc1cccnc1)C(=O)N[C@@H](Cc1ccccc1)C(N)=O
intracellular Ca ion level-increasing activity (FLIPR) [1]: 2 specific activity to metastin (1-54) | IC50 [2]: 90 nM

{Indole‑3‑acetyl}-NSF[azaGly]L[Arg(Me)]F-NH2 [Compound No. 266: des(1-3)-Indole-3-acetyl-[AzaGly7,Arg(Me)9]MS10]
intracellular Ca ion level-increasing activity (FLIPR) [1]: 2 specific activity to metastin (1-54) | IC50 [2]: 230 nM

[dY]FNSF[azaGly]L[Arg(Me)]F-NH2 [Compound No. 254: des(1)-[D-Tyr2,Phe3,AzaGly7,Arg(Me)9]MS10]
intracellular Ca ion level-increasing activity (FLIPR) [1]: 1 specific activity to metastin (1-54) | IC50 [2]: 11 nM
